Sequences and labels used below:
T1: Extracellular domain of cyno PD1 (cPD1-ECD) (Macaca fascicularis (cynomolgus))
T1 construct: Expressed with a hexahistidine tag or as Fc fusion; also called cynoPD1-ECD; cynoPD-1-ECD
T1 chain: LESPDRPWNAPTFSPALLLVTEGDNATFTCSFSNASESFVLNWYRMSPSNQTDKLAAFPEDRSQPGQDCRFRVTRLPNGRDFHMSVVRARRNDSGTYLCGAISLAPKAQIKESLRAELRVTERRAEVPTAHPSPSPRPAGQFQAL

B1: PD1B175 (antibody, V domains shown)
VH: QVQLVQSGAEVKKPGSSVKVSCKASGGTFKSYVIHWVRQAPGQGLEWMGGIIPIFGTANYAQKFQGRVTITADESTSTAYMELSSLRSEDTAVYYCARGYVRATGMLDYWGQGTLVTVSS
VL: EIVLTQSPATLSLSPGERATLSCRASQSVSSYLAWYQQKPGQAPRLLIYDASNRATGIPARFSGSGSGTDFTLTISSLEPEDFAVYYCQQRSNWPLTFGQGTKVEIK
notes: Tested as IgG2sigma; also called PD1H163/PH9L3
B2: PD1B162 (antibody, human IgG2, kappa, V domains shown)
VH: QVQLVQSGAEVKKPGSSVKVSCKASGGTFSSYAISWVRQAPGQGLEWMGGIIPIFDTANYAQKFQGRVTITADESTSTAYMELSSLRSEDTAVYYCARPGLAAAYDTGNLDYWGQGTLVTVSS
VL: EIVLTQSPATLSLSPGERATLSCRASQSVDSYLAWYQQKPGQAPRLLIYDASNRATGIPARFSGSGSGTDFTLTISSLEPEDFAVYYCQQREYWPLTFGQGTKVEIKR
notes: IgG2sigma/kappa; VH 42, VL 52; also called PD1H131/PD1L67
B3: PD1B164 (antibody, human IgG2, kappa, V domains shown)
VH: B2 VH
VL: B2 VL with D30R, N53Y, E92D
notes: IgG2sigma/kappa; VH 42, VL 53; also called PD1H131/PD1L71
B4: PD1B196 (antibody, V domains shown)
VH: B2 VH with N109S
VL: B1 VL with S30R, S92N, N93Y
notes: also called PD1H170/PD1L148
B5: PD1B199 (antibody, V domains shown)
VH: B1 VH with K30S, S31D, H35S, F55Y, Y100T, V101L, R102D, A103R, M106H
VL: B1 VL with Y49H, N53T, S92N, N93Y
notes: also called PD1H164/PD1L86
B6: PD1B201 (antibody, V domains shown)
VH: B1 VH with K30S, S31D, H35S, F55Y, Y100T, V101L, R102D, A103R, M106H
VL: B1 VL with S31N, S92N, N93Y
notes: also called PD1H164/PD1L190
B7: PD1B200 (antibody, V domains shown)
VH: B1 VH with K30S, S31D, H35S, F55Y, Y100T, V101L, R102D, A103R, M106H
VL: B1 VL with S30D, S31N, Y49H, N93A
notes: also called PD1H164/PD1L168
B8: PD1B243 (antibody, human IgG4 S228P, kappa, V domains shown)
VH: EVQLVESGGGLVQPGGSLRLSCAASGFAFSRYDMSWVRQAPGKGLESVAYISGGGANTYYLDNVKGRFTISRDNAKNSLYLQMNSLRAEDTAVYYCASPYLSYFDVWGQGTLVTVSS
VL: EIVMTQSPATLSVSPGERATLSCRASQSLSDYLHWYQQKPGQAPRLLIKSASQSISGIPARFSGSGSGTEFTLTISSLQSEDFAVYYCQNGHSFPYTFGQGTKLEIKR
B9: PD1B244 (antibody, human IgG4 S228P, kappa, V domains shown)
VH: B2 VH with N109S
VL: B2 VL with D30R, E92N
B10: TM3B193 (antibody, V domains shown)
VH: EVQLQQSGAELVKPGASVKLSCTASGFHIKDTYLHWVKQRPEQGLEWIGRIDPTNGNIKYDPKFQGKATITSDTSSNTAYLQLSSLTSEDTAVYYCARPYYGFFDYWGQGTTLTVSS
VL: DIVMTQSHKFMSTSVGDRVSITCKASQDVNTAVAWYQQKPGQSPKLLIYSATYRYTGVPDRFTGSGSGTDFTFTISSVQAEDLAVYYCQQHYSTPYTFGSGTKLEIK
notes: Mouse-derived variable domains; also called TM3H99/TM3L52
B11: TM3B196 (antibody, V domains shown)
VH: QVQLKESGPGLVAPSQSLSITCTISGFSLTSYGVHWVRQPPGKGLEWLVVIWSDGSTTYNSALKSRLSISKDNSKSQVFLKMNSLQTDDTAMYYCARQANYRYDSAMDYWGQGTSVTVSS
VL: DIQMTQSPASLAVSLGQRATISCKASQSVDYDGDSYMNWYQQKPGQPPKLLIYTAANLQSGIPARFSGSGSGTDFTLNIHPVEEEDAATYYCQQSNEDPFTFGSGTKLEIK
notes: Mouse-derived variable domains; also called TM3H102/TM3L64
B12: TM3B113 (antibody, V domains shown)
VH: EVQLLESGGGLVQPGGSLRLSCAASGFTFSDYWMSWVRQAPGKGLEWVSVIKYSGGSKYYADSVKGRFTISRDNSKNTLYLQMNSLRAEDTAVYYCAKELEGVFDYWGQGTLVTVSS
VL: EIVLTQSPGTLSLSPGERATLSCRASQSVSNSTLAWYQQKPGQAPRLLIYTASSRATGIPDRFSGSGSGTDFTLTISRLEPEDFAVYYCQQSYTSPWTFGQGTKVEIK
notes: also called TM3H65/TM3L12

Where a chain is given by its changes, count along the chain named.

The target in one experiment is T2, Extracellular domain of human PD1 (huPD1-ECD) (human, UniProt Q15116 25-169, biotinylated in the ligand inhibition assay (sites not given)).
T2 construct: Expressed with a hexahistidine tag or as Fc fusion; also called biotinylated PD-1
T2 sequence (Q15116 25-169 limits assumed): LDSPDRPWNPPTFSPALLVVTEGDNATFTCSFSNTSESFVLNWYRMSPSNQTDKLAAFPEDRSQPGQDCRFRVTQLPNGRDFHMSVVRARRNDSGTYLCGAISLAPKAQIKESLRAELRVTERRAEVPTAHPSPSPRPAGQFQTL
Description: MSD ligand inhibition, competitor coated cynoPDL1-ECD.
Consider B1, for which the “percentage ligand not blocked at 1 µg/ml” value stood at 6% and the “percentage ligand not blocked at 10 µg/ml” value was 5%.

In the case of B2, the “percentage ligand not blocked at 1 µg/ml” value was 7% and the “percentage ligand not blocked at 10 µg/ml” value was 6%.

In the case of B3, the “percentage ligand not blocked at 1 µg/ml” value came out at 6% and the “percentage ligand not blocked at 10 µg/ml” value is 3%.

The target in a further experiment is T1, Extracellular domain of cyno PD1 …. Put plainly: SPR ProteOn, cynoPD1-ECD; RANGE low replicate.
With B1, the Kd amounted to 26 nM and the kon came out at 198000 M⁻¹ s⁻¹.

B2 registered a Kd of 2.5 nM and a kon of 384000 M⁻¹ s⁻¹.

B3 gave a Kd of 1.06 nM and a kon of 267000 M⁻¹ s⁻¹.

Another experiment has as its target T2, Extracellular domain of human PD1 …. Description: SPR ProteOn, captured mAb, huPD1-ECD analyte.
Description: (§1) Affinity measurements using Surface Plasmon Resonance (SPR) were performed using a ProteOn XPR36 system. A biosensor surface was prepared by coupling a mixture of anti-IgG Fc modified alginate polymer layer surface of a GLC chip using the manufacturer instructions for amine-coupling chemistry. […] The collected data were processed and fitted to a Langmuir 1:1 binding model. The result for each mAb was reported in the format of kₒₙ (On-rate), koff (Off-rate) and KD (equilibrium dissociation constant).
(§2) STDEV were calculated for 3 or more replicates generated for human and cyno proteins. If less than 3 replicates were calculated, RANGE was indicated. RANGE is defined as the low and high values for the replicates tested. For samples in the Table 10 or Table 11 without value indicated in RANGE or STDEV, only one experiment was performed.
B1 had a Kd of 23 nM, a koff of 0.00972 s⁻¹ and a kon of 422000 M⁻¹ s⁻¹.

For the molecule B2, the Kd turned out to be 5.95 nM, the koff is 0.00386 s⁻¹ and the kon amounted to 649000 M⁻¹ s⁻¹.

In the case of B3, binding was put at a Kd of 2.92 nM, the koff came to 0.00131 s⁻¹ and the kon came to 448000 M⁻¹ s⁻¹.

Another experiment has the same target. Put plainly: SPR ProteOn, captured mAb, huPD1-ECD analyte. This is another data set of the same source.
B4 had an equilibrium dissociation constant (Kd) of 0.41 nM, a koff of 0.000366 s⁻¹ and a kon of 883000 M⁻¹ s⁻¹.

B5 registered a Kd of 0.6 nM, a koff of 0.000564 s⁻¹ and a kon of 933000 M⁻¹ s⁻¹.

For the molecule B6, binding was characterised by a dissociation constant (Kd) of 1.12 nM, the koff was 0.000957 s⁻¹ and the kon turned out to be 858000 M⁻¹ s⁻¹.

For B7, binding was characterised by a dissociation constant (Kd) of 1.17 nM, the koff was found to be 0.00122 s⁻¹ and the kon was determined as 1.05e+06 M⁻¹ s⁻¹.

A further experiment deals with T3, Full length human PD1 (huPD1) on cells (human, UniProt Q15116 25-288). Description: cell-based or functional assay.
T3 sequence (Q15116 25-288 limits assumed): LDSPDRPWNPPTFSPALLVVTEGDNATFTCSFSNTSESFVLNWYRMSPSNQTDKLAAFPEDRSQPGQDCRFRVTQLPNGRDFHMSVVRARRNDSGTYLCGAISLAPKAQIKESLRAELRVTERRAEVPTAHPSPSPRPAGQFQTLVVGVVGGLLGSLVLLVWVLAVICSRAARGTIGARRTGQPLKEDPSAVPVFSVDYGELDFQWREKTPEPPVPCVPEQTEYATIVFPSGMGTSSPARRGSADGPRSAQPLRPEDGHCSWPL
With B8, the “CMV EC50, nM (IFN-γ induction)” value amounted to 0.02 nM and the “MLR EC50, nM (IFN-γ induction)” value was found to be 0.07 nM.

As to B4, the “CMV EC50, nM (IFN-γ induction)” value came out at 0.31 nM and the “MLR EC50, nM (IFN-γ induction)” value was 0.14 nM.

B5: the “MLR EC50, nM (IFN-γ induction)” value was found to be 0.63 nM.

As to B6, the “CMV EC50, nM (IFN-γ induction)” value was 2.6 nM.

Consider B7, for which the “CMV EC50, nM (IFN-γ induction)” value is 3.81 nM.

Regarding B9, the “CMV EC50, nM (IFN-γ induction)” value is 0.03 nM and the “MLR EC50, nM (IFN-γ induction)” value is 0.08 nM.

A further experiment addresses T1, Extracellular domain of cyno PD1 …. Put plainly: SPR ProteOn, cynoPD1-ECD; RANGE high replicate; RANGE high replicate.
Description: as §1, §2
Turning to B1, the koff worked out at 0.00673 s⁻¹ and the association rate constant (kon) turned out to be 230000 M⁻¹ s⁻¹.

Take B2: the koff was determined as 0.000998 s⁻¹.

As for B3, the koff was 0.000291 s⁻¹.

Another experiment has the same target. Put plainly: SPR ProteOn, cynoPD1-ECD; RANGE high replicate.
Description: as §1, §2
Regarding B1, the Kd is 34 nM.

Molecule B2 displayed a dissociation constant (Kd) of 2.6 nM and a kon of 389000 M⁻¹ s⁻¹.

Regarding B3, the Kd came to 1.09 nM and the kon came to 267000 M⁻¹ s⁻¹.

A further experiment shares this target. Description: SPR ProteOn, captured mAb, cynoPD1-ECD analyte.
Regarding B1, the Kd amounted to 30 nM, the off-rate (koff) amounted to 0.0064 s⁻¹ and the kon was determined as 214000 M⁻¹ s⁻¹.

With B2, the affinity, expressed as Kd, was 2.53 nM; the koff came out at 0.000979 s⁻¹; the kon stood at 387000 M⁻¹ s⁻¹.

As to B3, the dissociation constant (Kd) was found to be 1.07 nM, the off-rate constant (koff) is 0.000287 s⁻¹ and the kon was determined as 267000 M⁻¹ s⁻¹.

Another experiment deals with T3, Full length human PD1 (huPD1) on cells. Put plainly: flow cytometry, PHA-stimulated Jurkat cells.
Description: Jurkat cells were stimulated overnight with 20 ng/ml of PHA, harvested, washed, and checked for viability. The cells were then incubated at 6-10° C. for 45-60 minutes with various concentrations of test antibodies, washed and incubated at 6-10° C. for 45-60 minutes with FITC-labeled goat anti-human IgG. The cells were washed and fixed with BD Cytofix, refrigerated overnight and analyzed on a MACSQuant flow cytometer. The percentage of PD-1 positive cells at each antibody concentration was plotted vs log of the antibody concentration and EC₅₀ values were generated in Prism.
The molecule B1 had an EC50 of 0.09 µg/mL.

Turning to B2, it took 0.05 µg/mL to reach a half-maximal effect (EC50).

B3 yielded an EC50 of 0.06 µg/mL.

Another experiment concerns the target T4, recombinant human TIM-3-Fc fusion protein (huTIM-3-Fc) (human, UniProt Q8TDQ0 22-200).
T4 construct: range 22-200; Bought from R&D Systems (NS0-derived); Deglycosylated for HDX-MS; also called recombinant human Fc-TIM-3 chimera; TIM-3 IgG1 Fc Chimera; not shown: IgG1 Fc of the bought chimera
Put plainly: competition ELISA on coated Fc-TIM-3, competitor galectin-9.
Turning to B10, the “Galectin 9 Inhibition, % inhibition (maximal)” value turned out to be 47.4%.

Regarding B11, the “Galectin 9 Inhibition, % inhibition (maximal)” value worked out at 57%.

For B12, the “Galectin 9 Inhibition, % inhibition (maximal)” value came out at 75.6%.

The next experiment addresses T1, Extracellular domain of cyno PD1 …. Put plainly: SPR ProteOn, cynoPD1-ECD; RANGE low replicate; RANGE low replicate.
Description: as §1
STDEV were calculated for 3 or more replicates generated for human and cyno proteins. If less than 3 replicates were calculated, RANGE was indicated. RANGE is defined as the low and high values for the replicates tested.
The molecule B1 displayed a koff of 0.00606 s⁻¹.

In the case of B2, the koff turned out to be 0.000959 s⁻¹.

B3 came in with a dissociation rate constant (koff) of 0.000282 s⁻¹.

Another experiment has the same target. Description: SPR ProteOn, captured mAb, cynoPD1-ECD analyte. The source holds these as a separate data set.
Description: as §1
STDEV were calculated for 3 or more replicates generated for human and cyno proteins. If less than 3 replicates were calculated, RANGE is indicated. RANGE is defined as the low and high values for the replicates tested. For samples without RANGE or STDEV, only one experiment was performed
For B4, binding was put at a Kd of 0.58 nM, the koff is 0.000176 s⁻¹ and the kon was found to be 303000 M⁻¹ s⁻¹.

In the case of B5, the affinity, expressed as Kd, was 0.52 nM; the koff came out at 0.000177 s⁻¹; the kon was 340000 M⁻¹ s⁻¹.

B6 displayed a Kd of 0.96 nM, a koff of 0.000293 s⁻¹ and a kon of 305000 M⁻¹ s⁻¹.

With B7, the Kd was 1.11 nM, the koff worked out at 0.000422 s⁻¹ and the kon was found to be 380000 M⁻¹ s⁻¹.

The values are drawn from patent publication US20210277110A1 (Janssen / Centocor, published 2021).
